Data: a protein production outcome set (Wang et al. 2014)

Experiment: label from the status in PepcDB records
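Also: failed if final PepcDB status was selected cloned or expressed and not failed if soluble or beyond.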

| Sequence | protein production |
| --- | --- |
| MDQFPESVTENFEYDDLAEACYIGDIVVFGTVFLSIFYSVIFAIGLVGNLLVVFALTNSKKPKSVTDIYLLNLALSDLLFVATLPFWTHYLINEKGLHNAMCKFTTAFFFIGFFGSIFFITVISIDRYLAIVLAANSMNNRTVQHGVTISLGVWAAAILVAAPQFMFTKQKENECLGDYPEVLQEIWPVLRNVETNFLGFLLPLLIMSYCYFRIIQTLFSCKNHKKAKAIKLILLVVIVFFLFWTPYNVMIFLETLKLYDFFPSCDMRKDLRLALSVTETVAFSHCCLNPLIYAFAGEKFRRYLYHLYGKCLAVLCGRSVHVDFSSSESQRSRHGSVLSSNFTYHTSDGDALLLL | failed |
| GASDGGGSIRIPASFSGLIGLKPSRGSMPVGPEGWRGWQGASIDFALTISMRDTKALFYGLRGSHSGAPYQAPLAEWQTHPKKQRLKIALCTASPIGSLISPEATQAAKQAADFLAAAGHEIIEIPYPVDGAALIRSYYQMNGAETTAMMNSIQQGLGRPIRKEEIESFSWTMHQFGQKIPAATYVHSLQLWDQAAVTMEELFQKFDLFLSPTTAFSAPKINEDLQSEHIRQRMAQAAELTEAELAELIYDYFDKSLQLTPYTQLANLTGQPAISLPTHVTATGLPLGIQLLAARGREDLLFQVGEQFEQEGK | failed |
| MEQFSFIACMPDIPGALHRAAEIITRYEGNINRIQYDRRIDLHTVFFEVTALPQAYEKIREELEKIGYLQTSLQPVAFVKFHVYLPNCPGALFDLLNYITSSKSSITFLDFDDRGQHPERLVVGLHIEDPNMIDALLNQLKSRYRLDILEYDTTGEKLDDTVFYLRLAQKLRSFIGSAEDDFLMRFLQDINHITQELSNLQKDPIEVFENILKVGDYLNRTSGDNFYADVQRVRIKDDIELFCFQPPCGGNIYLFDTSSERVMIDTGYGIYFQDIVNMLQYYGLGDLSRLKRIYITHADADHCGAAGCFPAPSYLNRETFLITRETSRAYGSSNQDCILEEVYTKIINLFSRFTPPSNTVLFPEVSLSDKIIEKRGVFPIIARFRIGDLKFEVLEGMGGHMHGEVFYFCPEEGLLFPEDAVINFKSLSPDRTAYNVLADYLMTSVNVDSKLAREERQSLLSLISEIDEQLARKNKKCLICCGHGSMSLLDNGKLIEYKGSERYVAGQKCISQENL | failed |
| MSPARARLTAPIVLLMSVATGLAVASNYYAQPLLHTIGAEFALTTATAGAIVTVAQLSYAVGLILLVPLGDLYERRTLIALMTALSAVGLLLSAFSPGIGWLMLGTAVTGLLSVVAQVLVPFAATLAEPHERGKVVGAVMSGLLLGILLARTIAGALADLGSWRTVYWVAAILMLLMSMALWRVLPRSVNPTRLSYPRLLASIVQLYAQEPLLRARSVLGALLFAAFSMLWTPLTFLLSGPNYGYSNTTIGLFGLAGAIGAYGANRFGRLNDRGQGNRSTRQGLLLLASWPLLAWGAHHVAPLLAGVLALDLAIQAVHVTNQSAIYRLRPEARSRLTAGYMTSYFLGGAAGSLLSAWIYAHAGWLGVTAAGALTSLAALLYGCLARSARIPETTPAPAIA | failed |
| MEIAPSTSRFKLYDQFELLEFPDKYVVKPIESPEEGFSVNRRDGNIKPLDENASSGSPTRVSTIYGVGGTIRLLAGTYLLVITSREEVGNFLGLPIFRVTAMKFLPCNEALRFATAQEKKDETYFRTLLQALETTPGLYFSYETDLTLNLQRRCKLAEGWNRKPMWKQADPRYVWNWHLLEDLIECKLDGFIIPILQGSYQVAELKLKNSPAVVSIMSRRCTRRLGTRMWRRGANLEGDAANFVESEQIVEINGFKFSLLQVRGSIPLLWEQIVDLSYKPRLKINKHEETPKVVQRHFHDLCQRYGEIMAVDLTDQHGDEGALSKAYATEMEKLPDVRYVSFDFHQVCGTTNFDNLGVLYEQIGDEFEKQGYFLVDADENILEEQKGVIRSNCIDCLDRTNVTQSFMGQKSLNLQLQRIGVCDSTECISTFEDDYTKFRTIWAEQGDEVSLQYAGTYALKGDLVRYGKQTMTGAIKDGLSAMSRYYLNNFQDGVRQDALDLISGRYTVGTHSPSQLQPIGSQPSFLPVASALLIGGVTVTSFTIHQAGRNTQQYLASALWAGVTAGVVAMIKANGRHLTSRPRLCHLI | failed |
| MDALTVGELRRRVHALVLGKRQRVYSGAMFLVEVVHHPELSAMLGLEDNKLLLAMIAQRLQMQSDYFQVARHSSDSFMVWAPDLDPRSARDVAPEVLDALSQPYELRGQPLIVGFRLSGALYAQHGACFDELERSLHIAMLHLDESAGAAWNMFEPSMLEHQRHYQGLEHHHHHH | not failed |
| MEYSTDLGRRVLLTLAGVALLLVVGLVLSQFLPTLVFTVFLYYASRPIYRRLGRLPLPKSFLKRAVPYQKQVHAAATIFFFLLPFVVLVGYTLVLVIPELQSFFGEGGLGAAYLSQFQELQGGSPPGPLADLGFSEVLAMGPAEVIDLLRNATVQSWLGRVSDTLIGSLSLLTSLLLRVFIMFAGTYYLLTDGPRLVGWFLDTFDGSGVLREYAAAVDEELSSILFGNILNALVTGVIGIFVFSLYNLVAPGSVQIPFAPLVGALTGIGSLIPVVGMKIVYLPVAVLLAVSAVVTGQTAALAWVALFLVVTLVVVDTIPDFLIRPYVSGDLTHVGLLMFAYILGPIAFGFYGIFLGPMLLVLAAQFFRIIVPYIITGTVETTQTSLSEYDSGES | failed |
| MKTLLSRSTAVPAKLLAATAITATLSAPAFSADANVESLVKAAQKEGSIYSVGMPDSWANWKDTWADLQSNYGLKHQDTDMSSAQEIAKFEAEKKNATADIGDVGFAFARVAVKKGVTQPYKPTTWNDIPDWAKDKDGHWALAYTGTISFISNNNLVKDAPKTWGDLLKGDYKVTVGDVGVAAQANNAVLAAAFANGGDESNLKPAIKFFAELAKQGRLSFTDPNIANLEKGEVEVAIMWDFNALNYRDKIDRERFTVTIPQDGSVISGYTTIINKYAKNPNAAKLAREYIFSDQGQINLAEGYARPIRTSITLPKSVQDKLIANDQYSNVHPVTDFSAWEKSARKLPRQWQESVLIHQQ | failed |
| TLRKARVKGLFLLSSGLQFSQSDHHPGGIPLAVIRHMSRQLKRNRTDTLTSFYEQMFSESEKSHGLDQAFLQTLEAGDPFYHWQNESLIAGLDYLANVQLLQGWPTVSVPITWIHGSDDTICPSPASGLFSPSKRLIIVEGAGHVPFYTQDSVVINAWEELLGN | failed |
| MKSADQLMSDIQLSLQALFQKIQPEMLESMEKQGVTPAQLFVLASLKKHGSLKVSEIAERMEVKPSAVTLMADRLEQKNLIARTHNTKDRRVIDLSLTDEGDIKFEEVLAGRKAIMARYLSFLTEEEMLQAAHITAKLAQAAETDEKQNMKRGNG | not failed |
| MEVSDGSSQVLNSMKHVASLRADEDPDETSLLLSSTLLDLVVFRLVLVLYCVRVLMLDQYQETIALSQEVMMEDGRREFNVPMNCPIPVVKRRMKAPKHVDEDLFKIFPQATTYLRQIQKGGGSGCFEFIRGEVCTKDLSQNNTFYFIF | failed |
| MGRTSKDKRDVYYRLAKENGWRARSAFKLLQLDKEFQLFQGVTRAVDLCAAPGSWSQVLSQKIGGQGSGHVVAVDLQAMAPLPGVVQIQGDITQLSTAKEIIQHFKGCPADLVVCDGAPDVTGLHDVDEYMQAQLLLAALNIATHVLKPGGCFVAKIFRGRDVTLLYSQLQVFFSSVLCAKPRSSRNSSIEAFAVCQGYDPPEGFIPDLSKPLLDHSYDPDFNQLDGPTRIIVPFVTCGDLSSYDSDRSYPLDLEGGSEYKYTPPTQPPISPPYQEACTLKRKGQLAKEIRPQDCPISRVDTFPQPLAAPQCHTLLAPEMEDNEMSCSP | failed |
| MKIINIGVLAHVDAGKTTLTESLLYTSGAIAESGSVDTGTTRTDTTFLERQRGITIQTAVTSFQWKDIKVNIIDTPGHMDFLAEVYRSLSVLDGAILLISARDGVQAQTRILFHALNKMGIPTIFFINKIDQNGIDLSTVYQDIKEKLSMEIIIKQKVELHPNMCVMSCTEPEQWDVVIEGNDYLLEKYTLGKSLEILELEQEEIRRFQNCSLYPVYHGSAKSNIGIEQLIEVITNKFYSSTYRKKSELCGNVFKIEYSEERQRLAYVRLYGGILHLRDSVRISEKEKIKITEMYTSINGELCKIDKAYSGEIVILQNEFLKLNSVLGDTKLLPQRERIENPLPLLQTTVEPSKPQQREMLLDALLEISDSDPLLQYYVDSTTHEIILSFLGKVQMEVTCALLQEKYHVEVKIKKPTVIYMERPLKKAEYTIHIEVPPNPFWASIGLSVAPLPLGSGVQYESSVSLGYLNQSFQNAVMEGIRYGCEQGLYGWNVTDCKICFKYGLYYSPVSTPADFRMLAPIVLEQVLKKAGTELLEPYLSFKIYAPQEYLSRAYNDAPKYCANIVDTQLKNNEVILSGEIPARCIQEYRNDLTFFTNGRSVCLTELKGYYVTTGESVCQPRRPNSRIDKVRYMFNKIT | failed |
| MEKNSLFSQRIRLRHLHTFVAVAQQGTLGRAAETLNLSQPALSKTLNELEQLTGARLFERGRQGAQLTLPGEQFLTHAVRVLDAINTAGRSLHRKEGLNNDVVRVGALPTAALGILPSVIGQFHQQQKETTLQVATMSNPMILAGLKTGEIDIGIGRMSDPELMTGLNYELLFLESLKLVVRPNHPLLQENVTLSRVLEWPVVVSPEGTAPRQHSDALVQSQGCKIPSGCIETLSASLSRQLTVEYDYVWFVPSGAVKDDLRHATLVALPVPGHGAGEPIGILTRVDATFSSGCQLMINAIRKSMPF | failed |
| MLAVGIVGLPNVGKSTLFNALTRANALAANYPFATIDKNVGVVPLEDERLYALQRTFAKGERVPPVVPTHVEFVDIAGLVKGAHKGEGLGNQFLAHIREVAAIAHVLRCFPDPDVVHVMGRVDPLEDAEVVETELLLADLATLERRLERLRKEARADRERLPLLEAAEGLYVHLQEGKPARTFPPSEAVARFLKETPLLTAKPVIYVANVAEEDLPDGRGNPQVEAVRRKALEEGAEVVVVSARLEAELAELSGEEARELLAAYGLQESGLQRLARAGYRALDLLTFFTAGEKEVRAWTVRRGTKAPRAAGEIHSDMERGFIRAEVIPWDKLVEAGGWARAKERGWVRLEGKDYEVQDGDVIYVLFNA | not failed |
| MASPLYPSVLNNPLSSIVVTRDEFNAFHTIDRTLFSRLVFNLNRDVDQSFLAMCFLLFLEQSSYARDIIAYLVSLPNAFVDAVANEIGVCINLLYNVEFASTFFAADNDDNSMIPLLLRITGGKFTLRLINQQRKNFCAGVTKSWTDVCTRAFSDLCETAHRINREKQLALEREKFIEDMKKLRLSLQQEKSNRLSVQQVKIASPPPPRPHPPVEDETEKALREKETMEVKEKEGVLAADDRTVFLTFSKGYPISEAEVRVYFTRRFGEVIEAVEMQEVEANEQPLFAKMVMKLQCASMMDEIVSARFRNKFTIDGKHVWARKYVRKNPYPASSSTHF | failed |
| MPVDKNLRDLEPGIHTDLEGRLTYGGYLRLDQLLSAQQPLSEPAHHDEMLFIIQHQTSELWLKLLAHELRAAIVHLQRDEVWQCRKVLARSKQVLRQLTEQWSVLETLTPSEYMGFRDVLGPSSGFQSLQYRYIEFLLGNKNPQMLQVFAYDPAGQARLREVLEAPSLYEEFLRYLARFGHAIPQQYQARDWTAAHVADDTLRPVFERIYENTDRYWREYSLCEDLVDVETQFQLWRFRHMRTVMRVIGFKRGTGGSSGVGFLQQALALTFFPELFDVRTSVGVDNRPPQGSADAGKRLEHHHHHH | not failed |
| MPITIGNGFLKSEILTNSPRNTKEAWWKVLWEKIKDFFFSTGKAKADRCLHEMLFADRTPTRERLTEIFFELKELACASQRDRFQVYNPNENDDTIILRIMDQNEENELLRITQNTDAFTCEVMGNAYFLIKDRPDILKPHPQMTAMINRRYSEIVDYPLPSTLCLNPAGAPTLSVPLDNIEGYLYSEWRKGNLDEWKTQEKVTYLAAKIQSGIEKTTRILQHANISESTQQSAFLETMAMCGLKQLEIPPPHTHIPIEKMVKEVLLADKTFQAFLVTDPSTSQSMLAEIVEAISDQVFHAIFRIAPQAIQKMAEEQLTTLHVRSEQQSGCLCCFL | failed |
